Measured values: IntAct's records for PubMed 24332715

B1: Dynamin-binding protein (Homo sapiens), Q6XZF7-1 (parent)
chain: MEAGSVVRAIFDFCPSVSEELPLFVGDIIEVLAVVDEFWLLGKKEDVTGQFPSSFVEIVTIPSLKEGERLFVCICEFTSQELDNLPLHRGDLVILDGIPTAGWLQGRSCWGARGFFPSSCVRELCLSSQSRQWHSQSALFQIPEYSMGQARALMGLSAQLDEELDFREGDVITIIGVPEPGWFEGELEGRRGIFPEGFVELLGPLRTVDESVSSGNQDDCIVNGEVDTPVGEEEIGPDEDEEEPGTYGVALYRFQALEPNELDFEVGDKIRILATLEDGWLEGSLKGRTGIFPYRFVKLCPDTRVEETMALPQEGSLARIPETSLDCLENTLGVEEQRHETSDHEAEEPDCIISEAPTSPLGHLTSEYDTDRNSYQDEDTAGGPPRSPGVEWEMPLATDSPTSDPTEVVNGISSQPQVPFHPNLQKSQYYSTVGGSHPHSEQYPDLLPLEARTRDYASLPPKRMYSQLKTLQKPVLPLYRGSSVSASRVVKPRQSSPQLHNLASYTKKHHTSSVYSISERLEMKPGPQAQGLVMEAATHSQGDGSTDLDSKLTQQLIEFEKSLAGPGTEPDKILRHFSIMDFNSEKDIVRGSSKLITEQELPERRKALRPPPPRPCTPVSTSPHLLVDQNLKPAPPLVVRPSRPAPLPPSAQQRTNAVSPKLLSRHRPTCETLEKEGPGHMGRSLDQTSPCPLVLVRIEEMERDLDMYSRAQEELNLMLEEKQDESSRAETLEDLKFCESNIESLNMELQQLREMTLLSSQSSSLVAPSGSVSAENPEQRMLEKRAKVIEELLQTERDYIRDLEMCIERIMVPMQQAQVPNIDFEGLFGNMQMVIKVSKQLLAALEISDAVGPVFLGHRDELEGTYKIYCQNHDEAIALLEIYEKDEKIQKHLQDSLADLKSLYNEWGCTNYINLGSFLIKPVQRVMRYPLLLMELLNSTPESHPDKVPLTNAVLAVKEINVNINEYKRRKDLVLKYRKGDEDSLMEKISKLNIHSIIKKSNRVSSHLKHLTGFAPQIKDEVFEETEKNFRMQERLIKSFIRDLSLYLQHIRESACVKVVAAVSMWDVCMERGHRDLEQFERVHRYISDQLFTNFKERTERLVISPLNQLLSMFTGPHKLVQKRFDKLLDFYNCTERAEKLKDKKTLEELQSARNNYEALNAQLLDELPKFHQYAQGLFTNCVHGYAEAHCDFVHQALEQLKPLLSLLKVAGREGNLIAIFHEEHSRVLQQLQVFTFFPESLPATKKPFERKTIDRQSARKPLLGLPSYMLQSEELRASLLARYPPEKLFQAERNFNAAQDLDVSLLEGDLVGVIKKKDPMGSQNRWLIDNGVTKGFVYSSFLKPYNPRRSHSDASVGSHSSTESEHGSSSPRFPRQNSGSTLTFNPSSMAVSFTSGSCQKQPQDASPPPKECDQGTLSASLNPSNSESSPSRCPSDPDSTSQPRSGDSADVARDVKQPTATPRSYRNFRHPEIVGYSVPGRNGQSQDLVKGCARTAQAPEDRSTEPDGSEAEGNQVYFAVYTFKARNPNELSVSANQKLKILEFKDVTGNTEWWLAEVNGKKGYVPSNYIRKTEYT
B2: Internalin C (Listeria monocytogenes serotype 1/2a), P71451 (parent)
chain: MLKKNNWLQNAVIAMLVLIVGLCINMGSGTKVQAESIQRPTPINQVFPDPGLANAVKQNLGKQSVTDLVSQKELSGVQNFNGDNSNIQSLAGMQFFTNLKELHLSHNQISDLSPLKDLTKLEELSVNRNRLKNLNGIPSACLSRLFLDNNELRDTDSLIHLKNLEILSIRNNKLKSIVMLGFLSKLEVLDLHGNEITNTGGLTRLKKVNWIDLTGQKCVNEPVKYQPELYITNTVKDPDGRWISPYYISNGGSYVDGCVLWELPVYTDEVSYKFSEYINVGETEAIFDGTVTQPIKN

Variants of: B1
Details: with inlc_lismg inlC

| Variant | effect of a mutation on the interaction |
| --- | --- |
| N1569R | decreasing interaction strength |
| V1521R | decreasing interaction strength |

Variants of: B2
Details: with DNMBP

| Variant | effect of a mutation on the interaction |
| --- | --- |
| F146A | decreasing interaction strength |
